Where “and” joins values, the source holds several entries; their conditions need not be identical. Equal entries are not always repeated. Where two headings read alike, the source gives them in different places.
Assays:
[1] = target: T1, FoxA, TonB-dependent ferrioxamine B transporter from Pseudomonas aeruginosa PAO1 (full-length) (Pseudomonas aeruginosa strain PAO1, UniProt Q9I116 1-820); test: ITC
T1 sequence (looked up): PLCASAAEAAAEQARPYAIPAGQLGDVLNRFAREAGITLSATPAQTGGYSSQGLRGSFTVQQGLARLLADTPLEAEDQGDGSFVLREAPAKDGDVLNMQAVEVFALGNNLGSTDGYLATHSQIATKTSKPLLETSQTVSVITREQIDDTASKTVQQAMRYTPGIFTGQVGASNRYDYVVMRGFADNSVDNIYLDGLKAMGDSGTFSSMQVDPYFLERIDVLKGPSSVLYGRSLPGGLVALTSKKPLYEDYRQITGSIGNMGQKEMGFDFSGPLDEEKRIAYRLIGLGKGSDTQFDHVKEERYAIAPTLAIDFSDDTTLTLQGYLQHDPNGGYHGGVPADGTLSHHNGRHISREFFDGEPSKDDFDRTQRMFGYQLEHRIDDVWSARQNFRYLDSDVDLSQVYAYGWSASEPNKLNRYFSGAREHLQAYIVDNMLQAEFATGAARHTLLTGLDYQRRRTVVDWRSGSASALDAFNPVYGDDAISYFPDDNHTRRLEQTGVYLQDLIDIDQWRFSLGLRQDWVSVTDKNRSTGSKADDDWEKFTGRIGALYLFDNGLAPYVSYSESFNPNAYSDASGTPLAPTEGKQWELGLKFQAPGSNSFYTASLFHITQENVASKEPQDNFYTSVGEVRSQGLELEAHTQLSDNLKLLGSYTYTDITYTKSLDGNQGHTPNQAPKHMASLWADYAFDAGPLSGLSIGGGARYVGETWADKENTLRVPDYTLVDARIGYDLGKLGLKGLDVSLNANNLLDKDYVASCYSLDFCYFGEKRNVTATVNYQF

[2] = target: T1, FoxA, TonB-dependent ferrioxamine B …; test: ITC; remark: listed apart in the source

B1: C-terminal domain of TonB1 from Pseudomonas aeruginosa PAO1 (residues 251-340) (domain or fragment, Pseudomonas aeruginosa strain PAO1, UniProt Q51368 251-340, looked up)
chain: DSDIKPLRMDPPVYPRMAQARGIEGRVKVLFTITSDGRIDDIQVLESVPSRMFDREVRQAMAKWRFEPRVSGGKIVARQATKMFFFKIEK
Kd [1]: 6 nM and 6 to 10 nM
dH [1]: -19.2 ± 0.4 kcal/mol
Kd [2]: 107 ± 30 nM
dH [2]: -11 ± 0.3 kcal/mol
